Measurements from patent publication US20190263918A1 (SHANGHAI JIAO TONG UNIVERSITY SCHOOL OF MEDICINE, published 2019).

T1: human FcγRIIB extracellular domain protein (human, UniProt P31994 43-217)
T1 construct: extracellular domain; SPR: His-tagged, immobilised; ELISA: biotinylated; also called hFcγRIIB; CD32b
T1 sequence (looked up): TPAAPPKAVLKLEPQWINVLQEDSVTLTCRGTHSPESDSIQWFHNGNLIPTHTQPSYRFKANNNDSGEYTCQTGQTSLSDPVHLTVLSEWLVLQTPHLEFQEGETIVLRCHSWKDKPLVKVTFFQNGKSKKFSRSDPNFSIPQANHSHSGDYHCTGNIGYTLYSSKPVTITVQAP

T2: human FcγRIIA-R131 extracellular domain protein (human, UniProt P12318 34-217)
T2 construct: extracellular domain; SPR: His-tagged, immobilised; ELISA: biotinylated; also called hFcγRIIA-R131; CD32a
T2 sequence (looked up): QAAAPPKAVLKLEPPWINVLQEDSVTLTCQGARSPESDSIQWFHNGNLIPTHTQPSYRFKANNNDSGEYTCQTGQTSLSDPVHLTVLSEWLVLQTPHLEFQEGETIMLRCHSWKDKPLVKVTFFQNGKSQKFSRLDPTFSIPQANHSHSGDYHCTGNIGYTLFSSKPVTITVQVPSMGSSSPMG


How the values were obtained:
[1] = target: T3, human FcγRIIIA-F158 extracellular domain protein (human, UniProt P08637 17-208); assay: SPR, Biacore T100, FcγR extracellular domain immobilised
T3 construct: extracellular domain; SPR: His-tagged, immobilised; also called hFcγRIIIA-F158; CD16a

[2] = target: T1, human FcγRIIB extracellular domain …; assay: SPR; fold against G1
[3] = target: T1, human FcγRIIB extracellular domain …; assay: SPR; [lower of KD(hFcγRIIA-R131) and KD(hFcγRIIIA-F158)]/KD(hFcγRIIB)
[4] = target: T4, human FcγRI extracellular domain protein (human, UniProt P12314 16-292); assay: SPR, Biacore T100, FcγR extracellular domain immobilised, 1:1 model
T4 construct: extracellular domain; also called hFcγRI; CD64

[5] = target: T1, human FcγRIIB extracellular domain …; assay: as above
[6] = target: T2, human FcγRIIA-R131 extracellular domain …; assay: as above
[7] = target: T2, human FcγRIIA-R131 extracellular domain …; assay: ELISA, coated antibody, biotinylated FcγR extracellular domain
Experimental: The ELISA plate was coated with 100 μL antibody at an appropriate concentration overnight, supernatant being discarded. The plate was blocked with 1% BSA in PBS for 2 hours, followed by washing with PBST (PBS with 0.05% Tween 20). Then, biotinylated FcγR extracellular domain protein (Sino Biologic Inc., Beijing China) at a concentration as appropriate was added and incubated at room temperature for 1 hour, supernatant being discarded, followed by PBST wash. Streptavidin-HRP (BD Biosciences) was added and incubated at room temperature for 1 hour for detection of biotin protein. After removal of supernatant, developing solution was added to react for 20-40 minutes, and absorbance was determined at 650 nm (A650).

[8] = target: T4, human FcγRI extracellular domain protein; assay: SPR, Biacore T100, FcγR extracellular domain immobilised

T4 sequence (P12314 16-292): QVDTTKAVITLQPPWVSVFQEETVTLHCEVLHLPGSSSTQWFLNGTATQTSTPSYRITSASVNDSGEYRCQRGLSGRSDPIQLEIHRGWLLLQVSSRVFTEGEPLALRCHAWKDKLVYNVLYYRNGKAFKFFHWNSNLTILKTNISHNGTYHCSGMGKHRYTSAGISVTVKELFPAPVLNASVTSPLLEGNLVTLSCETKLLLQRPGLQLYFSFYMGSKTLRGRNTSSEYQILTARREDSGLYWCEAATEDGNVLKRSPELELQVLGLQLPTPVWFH
T3 sequence (P08637 17-208): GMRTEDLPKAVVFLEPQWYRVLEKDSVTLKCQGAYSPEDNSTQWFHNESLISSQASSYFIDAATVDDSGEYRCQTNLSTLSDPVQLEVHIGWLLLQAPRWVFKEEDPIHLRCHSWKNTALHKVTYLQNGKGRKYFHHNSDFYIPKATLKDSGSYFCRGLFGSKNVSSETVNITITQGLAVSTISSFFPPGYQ

Row | binding result [1] | folds of increase in hFcγRIIB binding [2] | I/A ratio [3] | Kd [4] | Kd [5] | Kd [6] | binding result [7] | binding result [8] | Binder
1 | no binding | 94 fold | 271 | 230 nM | 14 nM | 3800 nM | – | – | Fc fragment of heavy chain constant region V11(H1) (hIgG1 G237D/P238D/H268D/P271G/A330R) (other) PELLGDDSVFLFPPKPKDTLMISRTPEVTCVVVDVSDEDGEVKFNWYVDGVEVHNAKTKPREEQYNSTYRVVSVLTVLHQDWLNGKEYKCKVSNKALPRPIEKTISKAKGQPREPQVYTLPPSRDELTKNQVSLTCLVKGFYPSDIAVEWESNGQPENNYKTTPPVLDSDGSFFLYSKLTVDKSRWQQGNVFSCSVMHEALHNHYTQKSLSLSPGK
2 | – | – | – | – | – | – | no binding | – | Anti-mCD40-hIgG2-NA (antibody, Chimeric anti-murine CD40 antibody, heavy chain constant region G2-NA (N297A)) heavy: EVQLVESDGGLVQPGRSLKLPCAASGFTFSDYYMAWVRQAPTKGLEWVASISYDGSSTYYRDSVKGRFTISRDNAKSTLYLQMDSLRSEDTATYYCGRHSSYFDYWGQGVMVTVSSASTKGPSVFPLAPCSRSTSESTAALGCLVKDYFPEPVTVSWNSGALTSGVHTFPAVLQSSGLYSLSSVVTVPSSNFGTQTYTCNVDHKPSNTKVDKTVERKCCVECPPCPAPPVAGPSVFLFPPKPKDTLMISRTPEVTCVVVDVSHEDPEVQFNWYVDGVEVHNAKTKPREEQFASTFRVVSVLTVVHQDWLNGKEYKCKVSNKGLPAPIEKTISKTKGQPREPQVYTLPPSREEMTKNQVSLTCLVKGFYPSDIAVEWESNGQPENNYKTTPPMLDSDGSFFLYSKLTVDKSRWQQGNVFSCSVMHEALHNHYTQKSLSLSPGK light: DTVLTQSPALAVSPGERVTISCRASDSVSTLMHWYQQKPGQQPKLLIYLASHLESGVPARFSGSGSGTDFTLTIDPVEADDTATYYCQQSWNDPWTFGGGTKLELKRTVAAPSVFIFPPSDEQLKSGTASVVCLLNNFYPREAKVQWKVDNALQSGNSQESVTEQDSKDSTYSLSSTLTLSKADYEKHKVYACEVTHQGLSSPVTKSFNRGEC
3 | – | < 0.4 fold | – | – | – | – | – | no binding | Fc fragment of heavy chain constant region G2 (hIgG2) (other) PPVAGPSVFLFPPKPKDTLMISRTPEVTCVVVDVSHEDPEVQFNWYVDGVEVHNAKTKPREEQFNSTFRVVSVLTVVHQDWLNGKEYKCKVSNKGLPAPIEKTISKTKGQPREPQVYTLPPSREEMTKNQVSLTCLVKGFYPSDIAVEWESNGQPENNYKTTPPMLDSDGSFFLYSKLTVDKSRWQQGNVFSCSVMHEALHNHYTQKSLSLSPGK
